Laboratory results taken from the nanobody polyreactivity screen of Harvey et al. (2022).

assay: yeast display, Sf9 membrane polyspecificity reagent, FACS + sequencing; frameworks hold sequencing errors
Summary of the method: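 Galactose-induced (36–48 hours) yeast carrying a synthetic nanobody display library were exposed to 10% biotinylated, detergent-solubilized Sf9 membrane reagent at 4 °C for 1 hour. FACS followed streptavidin microbead enrichment, using low and high (top ~1%) gates for expression (anti-HA) and reagent binding (streptavidin). Colony PCR, MiSeq 2 × 250 sequencing and CDR-length filtering followed. Labels for polyreactivity reflect the gate of origin.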

Row | Sequence | polyreactivity (PSR sort gate)
1 | QVQLVESGGGLVQAGGSLRLSCAASGRIFAPYAMGWYRQAPGKERELVAAIDGSGGSTYYADSVKGRFTISRDNAKNTVYLQMNSLKPEDTAVYYCATRGSYRSQRWYGYWGQGTQVTVSS | high polyreactivity
2 | QVQLVESGGGLVQAGGSLRLSCAASGRIFAQYALGWYRQAPGKERELVAGIDRRGGSTYYADSVKGRFTISRDNAKNTVYLQMNSLKPEDTAVYYCNALREDPLFFVYIGGGYWGQGTQVTVSS | low polyreactivity
3 | QVQLVESGGGLVQAGGSLRLSCAASGRIFAQYAMGWYRQAPGKDRELVADISSGVRTYADSVKGRFTISRDNAKNTVYLQMNSLKPEDTAVYYCNAYYIIFTRNDYWGQGTQVNVSS | low polyreactivity
4 | QVQLVESGGGLVQAGGSLRLSCAASGRIFAQYAMGWYRQAPGKEREFVAAITGSTDSTYYADSVKGRFTISRDNAKNTVYLQMNSLKPEDTAVYYCAKDDAYSTIIDYEYSYDYWGQGTQVTVSS | high polyreactivity
5 | QVQLVESGGGLVQAGGSLRLSCAASGRIFARNAMGWYIQAPGKEREFVAAITHSGGNTYYADSVKGRFTISRDNAKKTVYLQMNSLKPEDTAVYYCAKEYRSTKYDYWGQGTQVTVSS | low polyreactivity
6 | QVQLVESGGGLVQAGGSLRLSCAASGRIFARNAMGWYIQAPWKERELVAAISWTGDSTYYADSVKGRFTISRDNAKNTVYLQMNSLKPEDTAVYYCNALVYHTKGDYGYWGQGTQVTVSS | low polyreactivity
7 | QVQLVESGGGLVQAGGSLRLSCAASGRIFARNAMGWYRQAPGKERELVAVITSRGGSTYYADSVKGRFTISRDNAKNTVYLQMNSLKPEDTAVYYCAARYSGEYGYWGQGTQVTVSS | high polyreactivity
8 | QVQLVESGGGLVQAGGSLRLSCAASGRIFARNAMGWYRQAPGKESELVAAINWSGGSTYYADSVKGRFTISRDNAKNTVYLQMNSLKPEDTAVYYCATRSSLFRQYLPWYEYWGQGTQVTVSS | low polyreactivity
9 | QVQLVESGGGLVQAGGSLRLSCAASGRIFASNAMGWYRPAPGKERELVAAIDQGGGSTYYADSVKGRFTISRDNAKNTVYLQMNSLKPEDTAVYYCAADYITAYPRLYNYWGQGTQVTVSS | low polyreactivity
10 | QVQLVESGGGLVQAGGSLRLSCAASGRIFASYAMGWYRQAPGKERELVAAIDRTDSTYYADSVKGRFTISRDNAKNTVYLQMNSLKPEDTAVYYCAADEYYTFSSFELRRMDYWGQGTQVTVSS | low polyreactivity
11 | QVQLVESGGGLVQAGGSLRLSCAASGRIFASYAMGWYRQAPGKERELVAAISKSGGRTYYADSVKGRFTISRDNAKNTVYLQMNSLKPEDTAVYYCAADGYRYYSWTRFSYYSGYDYWGQGTQVTVSS | high polyreactivity
12 | QVQLVESGGGLVQAGGSLRLSCAASGRIFATNAMGWYRQAPGKERELVAAISDGGGSTYYADSVKGRFTISRDNAKNTVYLQMNSLKPEDTAVYYCAARVLDWRGDIHDSEYWGQGTQVTVSS | low polyreactivity
13 | QVQLVESGGGLVQAGGSLRLSCAASGRIFATNAMGWYRQAPGKERELVATITRSAGRTYYADSVKGRFTISRDNEKNTVYLQMNILKPDVTAVYYCAADGYSTAVDDTVRYIVEYEFWGQGTQVTVSS | low polyreactivity
14 | QVQLVESGGGLVQAGGSLRLSCAASGRIFAVNAMGWYRQAHGKERELVASISRRGGTTNYADSVKGRFTISRDNAKNTVYLKMNSLIPEDTAVYYCATRGSAWGRSYNYWGQGTQVTLSS | high polyreactivity
15 | QVQLVESGGGLVQAGGSLRLSCAASGRIFAVYVMGWYRQAPGKERELVAAISQSGGRTYYADSVKGRFTISRDNAKNTVYLQMNSLKPEDTAVYYCNTVTSRATNFSGFGYWGQGTQVTVSS | high polyreactivity
16 | QVQLVESGGGLVQAGGSLRLSCAASGRIFAWYAMGWYRQAPGKERELVAAISDSGGSTYYADSVKGRFTISRDNAKNTVYLQMNSLKPEDTAVYYCAADQVVYSAYWSDHYDYWGQGTQVTVSS | low polyreactivity
